# Target: human alpha-thrombin (human, UniProt P00734;P00734 328-363;364-622)
# Assay: BLI
row,Binder,Kd [nM]
1,GGTTGGTGTGGTTGG (structured_DNA) [TBA-Bt],114
2,TCACTGTGGTTGGTGTGGTTGGTTTTTTTTTTTTACAGTG (structured_DNA) [ISD-Bt],246

# From doi:10.1101/2023.08.08.552518
